Test results: patent WO2017061602A1 (dated 2017)

Columns and labels:
[1] = target: T1, extracellular domain cynomolgus monkey CD147-His (cynomolgus monkey); assay: ELISA, extracellular domain cynomolgus monkey CD147-His on the plate
T1 construct: Made in FreeStyle-293F cells, purified on His-Trap HP; also called monkey extracellular domain CD147-His; cynomolgus monkey CD147 extracellular domain antigen
T1 chain: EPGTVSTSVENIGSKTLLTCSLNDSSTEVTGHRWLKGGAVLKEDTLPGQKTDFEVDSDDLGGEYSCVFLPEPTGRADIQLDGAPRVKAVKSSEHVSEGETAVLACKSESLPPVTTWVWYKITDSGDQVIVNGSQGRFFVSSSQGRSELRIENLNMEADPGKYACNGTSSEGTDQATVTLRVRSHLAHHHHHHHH

[2] = target: T2, extracellular domain human CD147-His (human, UniProt P35613 140-323); assay: ELISA, extracellular domain human CD147-His on the plate
T2 construct: Made in FreeStyle-293F cells, purified on His-Trap HP; also called extracellular domain CD147-His; human CD147 extracellular domain antigen
T2 sequence: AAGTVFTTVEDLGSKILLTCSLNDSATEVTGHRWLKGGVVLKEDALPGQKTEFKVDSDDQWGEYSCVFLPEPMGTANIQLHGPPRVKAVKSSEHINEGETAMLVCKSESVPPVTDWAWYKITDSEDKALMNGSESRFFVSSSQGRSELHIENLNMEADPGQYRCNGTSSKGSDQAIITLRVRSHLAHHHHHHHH

binding result [1]: no binding | binding result [2]: binds
B1: HAb18 (antibody, V domains shown)
VH: EVKLEESGGGLVQPGGSMKLSCVASGFTFSDAWMDWVRQSPEKGLEWVAEIRSKANNHAPYYTESVKGRFTISRDDSKSIIYLQMNNLRAEDTGIYYCTRDSTATHWGQGTLVTVSA
VL: SIVMTQTPTFLVVSAGDRVTITCKASQSVINDVAWYQQKPGQSPKLLIFYASNRNTGVPDRFTGSGYGTDFTFTISTVQAEDLAVYFCQQDYSPPFTFGSGTKLEIK
notes: also called HAb18G; target antibody HAb18
